As usually defined, the EC50 is the concentration at which the effect is half-maximal.

“And” between values parts separate entries of the source, which are not always exact repeats. Equal entries are not always repeated.

One test has as its target T1, ErbB3 (Rattus norvegicus, UniProt Q62799).
T1 construct: forming the ErbB2/ErbB4 complex in cardiomyocytes and the ErbB2/ErbB3 complex in Schwann cells; endogenous in cells; host or cells: rat Schwann cells
Nature of the test: In vitro phosphorylation of Akt in rat Schwann cells. The note with it: Akt (Serine 473) phosphorylation, 15 minutes treatment, read-out: Schwann cells (SC) (ErbB3) Avg EC50. The class given is cell-based. The method, then: (§1) In Vitro Phosphorylation of Akt in Neonatal Rat Cardiomyocytes and Rat Schwann Cells by Neuregulin Variants
(§2) Specificity of neuregulin variants towards cardiomyocytes (ErbB4) versus Schwann cells (ErbB3) was tested by measuring Akt activity generated by formation of the ErbB2/ErbB4 and ErbB2/ErbB3 complexes. Upon activation by neuregulin, the ErbB4 and ErbB3 receptors dimerize preferentially with the ErbB2 co-receptor, forming the ErbB2/ErbB4 complex in cardiomyocytes and the ErbB2/ErbB3 complex in Schwann cells, both of which signal through the Akt pathway. Neonatal rat cardiomyocytes were isolated from hearts of Sprague Dawley rat pups at 0 to 4 days old according to manufacturer's protocol using the Neomyt kit and plated on Surecoat plates in NS media containing serum (all from Cellultron Life Technologies, Baltimore, MD). Rat Schwann cells were plated in Poly-D-Lysine coated plates with Dulbecco's modified Eagle's media (DMEM) supplemented with fetal bovine serum (Thermo Fisher) and forskolin (Millipore Sigma).
(§3) After a 24-hour incubation in a humidified incubator maintained at 37° C. and 5% CO2, cardiomyocytes and Schwann cells were washed with serum free media and incubated an additional 16 hours in DMEM supplemented with bovine serum albumin (Sigma). Both cell lines were then treated with titrations of the neuregulin variant molecules for 15 minutes, upon which cells were lysed in lysis buffer (Meso Scale Discovery (MSD)). For detection of Akt phosphorylation, lysates were added to the Multi-Spot 96-Well 4-Spot Phospho (Serine 473)/Total Akt plates (MSD), incubated according to the manufacturer's protocol and read in the SECTOR Imager 6000 (MSD). For both cell assays, the percent phosphorylation of Akt was calculated by multiplying the phospho Akt signal by 2, then dividing by the phospho Akt signal added to the total Akt signal and then multiplying by 100. The phosphorylation of Akt data points were fitted using a log (agonist) versus response, variable slope (4 parameters) analysis in GraphPad Prism to generate EC50 curves. The CM % agonism reflect the top value of the data points.

Another test concerns the target T2, ErbB4 (Rattus norvegicus, UniProt Q62956).
T2 construct: forming the ErbB2/ErbB4 complex in cardiomyocytes and the ErbB2/ErbB3 complex in Schwann cells; endogenous in cells; host or cells: primary neonatal rat cardiomyocytes (Sprague Dawley pups, 0 to 4 days old)
The experiment in a line: In vitro phosphorylation of Akt in neonatal rat cardiomyocytes. It counts as cell-based. The note with it: for EC50: Akt (Serine 473) phosphorylation, neonatal rat cardiomyocytes, 15 minutes treatment, read-out: Cardiomyocyte (CM) (ErbB4) Avg EC50; for Selectivity SC/CM: ratio of EC50s Schwann cells/cardiomyocytes; for CM % Agonism AVG: top value of the Akt phosphorylation data points in cardiomyocytes, wild-type control 100. How it is done: as §1, §2, §3

T1 sequence (Q62799 20-1339): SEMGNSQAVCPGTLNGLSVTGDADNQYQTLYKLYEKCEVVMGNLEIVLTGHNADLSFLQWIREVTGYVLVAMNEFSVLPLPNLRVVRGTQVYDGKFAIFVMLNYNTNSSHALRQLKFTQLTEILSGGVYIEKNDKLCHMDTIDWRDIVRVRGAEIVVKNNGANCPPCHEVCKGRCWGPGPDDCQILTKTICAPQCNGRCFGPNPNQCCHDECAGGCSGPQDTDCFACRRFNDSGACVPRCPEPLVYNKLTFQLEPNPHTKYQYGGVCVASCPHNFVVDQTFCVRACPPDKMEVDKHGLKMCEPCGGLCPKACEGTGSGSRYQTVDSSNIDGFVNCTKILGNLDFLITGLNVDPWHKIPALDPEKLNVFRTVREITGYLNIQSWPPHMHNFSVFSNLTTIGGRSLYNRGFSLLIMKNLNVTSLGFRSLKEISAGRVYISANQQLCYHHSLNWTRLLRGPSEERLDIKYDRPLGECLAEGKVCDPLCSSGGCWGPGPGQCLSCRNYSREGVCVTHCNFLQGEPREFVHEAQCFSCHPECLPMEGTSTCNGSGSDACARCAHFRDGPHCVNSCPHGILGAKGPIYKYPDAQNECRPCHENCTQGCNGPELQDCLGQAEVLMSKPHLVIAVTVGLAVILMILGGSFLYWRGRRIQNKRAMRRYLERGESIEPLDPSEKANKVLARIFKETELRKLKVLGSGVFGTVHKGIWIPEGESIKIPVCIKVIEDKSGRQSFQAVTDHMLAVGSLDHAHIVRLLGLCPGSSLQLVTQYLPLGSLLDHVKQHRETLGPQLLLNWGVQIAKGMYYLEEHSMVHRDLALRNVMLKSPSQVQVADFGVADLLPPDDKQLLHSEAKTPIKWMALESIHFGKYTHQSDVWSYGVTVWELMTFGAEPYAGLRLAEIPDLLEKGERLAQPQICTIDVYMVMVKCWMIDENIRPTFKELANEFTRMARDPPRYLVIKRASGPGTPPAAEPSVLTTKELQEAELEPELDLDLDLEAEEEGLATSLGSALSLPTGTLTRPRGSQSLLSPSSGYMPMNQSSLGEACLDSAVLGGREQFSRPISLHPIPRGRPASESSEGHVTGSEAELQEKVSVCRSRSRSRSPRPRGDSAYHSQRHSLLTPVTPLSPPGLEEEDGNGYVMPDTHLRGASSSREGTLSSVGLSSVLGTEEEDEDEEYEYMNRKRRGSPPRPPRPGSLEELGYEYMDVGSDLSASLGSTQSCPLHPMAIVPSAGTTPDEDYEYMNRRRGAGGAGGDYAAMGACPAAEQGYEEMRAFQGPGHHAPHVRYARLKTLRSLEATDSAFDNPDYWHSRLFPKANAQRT
T1 sequence (P06494 23-1257 partner): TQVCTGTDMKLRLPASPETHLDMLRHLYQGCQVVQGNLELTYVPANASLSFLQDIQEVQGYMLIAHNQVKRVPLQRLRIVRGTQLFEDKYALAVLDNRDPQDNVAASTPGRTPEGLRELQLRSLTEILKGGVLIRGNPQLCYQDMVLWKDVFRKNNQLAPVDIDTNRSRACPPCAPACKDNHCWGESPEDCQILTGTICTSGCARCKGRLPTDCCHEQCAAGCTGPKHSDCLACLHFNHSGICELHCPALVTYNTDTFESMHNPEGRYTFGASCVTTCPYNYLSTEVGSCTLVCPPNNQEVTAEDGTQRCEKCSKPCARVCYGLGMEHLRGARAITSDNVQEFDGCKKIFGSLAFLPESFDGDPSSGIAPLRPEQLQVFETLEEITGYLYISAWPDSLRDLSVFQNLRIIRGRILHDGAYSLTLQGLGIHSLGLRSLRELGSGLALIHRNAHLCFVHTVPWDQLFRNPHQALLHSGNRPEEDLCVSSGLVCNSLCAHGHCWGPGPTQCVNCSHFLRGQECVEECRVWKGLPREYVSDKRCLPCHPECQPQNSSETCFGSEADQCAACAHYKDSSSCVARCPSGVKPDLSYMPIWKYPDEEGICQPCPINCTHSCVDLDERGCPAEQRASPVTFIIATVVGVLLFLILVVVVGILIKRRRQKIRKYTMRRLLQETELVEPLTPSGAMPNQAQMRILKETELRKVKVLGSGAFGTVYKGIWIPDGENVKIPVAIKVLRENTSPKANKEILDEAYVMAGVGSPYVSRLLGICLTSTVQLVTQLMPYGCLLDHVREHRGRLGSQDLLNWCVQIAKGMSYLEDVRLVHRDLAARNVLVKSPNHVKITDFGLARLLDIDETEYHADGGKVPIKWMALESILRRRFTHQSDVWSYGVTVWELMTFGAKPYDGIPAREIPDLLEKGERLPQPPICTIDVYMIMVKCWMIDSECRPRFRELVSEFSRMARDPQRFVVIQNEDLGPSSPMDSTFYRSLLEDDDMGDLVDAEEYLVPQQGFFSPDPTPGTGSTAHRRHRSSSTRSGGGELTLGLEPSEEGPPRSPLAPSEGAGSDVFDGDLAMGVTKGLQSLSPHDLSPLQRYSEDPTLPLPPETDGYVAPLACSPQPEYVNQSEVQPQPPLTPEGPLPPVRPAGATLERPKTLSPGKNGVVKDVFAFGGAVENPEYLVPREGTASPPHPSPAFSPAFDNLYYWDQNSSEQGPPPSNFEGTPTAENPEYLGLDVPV
T2 sequence (Q62956 26-1308): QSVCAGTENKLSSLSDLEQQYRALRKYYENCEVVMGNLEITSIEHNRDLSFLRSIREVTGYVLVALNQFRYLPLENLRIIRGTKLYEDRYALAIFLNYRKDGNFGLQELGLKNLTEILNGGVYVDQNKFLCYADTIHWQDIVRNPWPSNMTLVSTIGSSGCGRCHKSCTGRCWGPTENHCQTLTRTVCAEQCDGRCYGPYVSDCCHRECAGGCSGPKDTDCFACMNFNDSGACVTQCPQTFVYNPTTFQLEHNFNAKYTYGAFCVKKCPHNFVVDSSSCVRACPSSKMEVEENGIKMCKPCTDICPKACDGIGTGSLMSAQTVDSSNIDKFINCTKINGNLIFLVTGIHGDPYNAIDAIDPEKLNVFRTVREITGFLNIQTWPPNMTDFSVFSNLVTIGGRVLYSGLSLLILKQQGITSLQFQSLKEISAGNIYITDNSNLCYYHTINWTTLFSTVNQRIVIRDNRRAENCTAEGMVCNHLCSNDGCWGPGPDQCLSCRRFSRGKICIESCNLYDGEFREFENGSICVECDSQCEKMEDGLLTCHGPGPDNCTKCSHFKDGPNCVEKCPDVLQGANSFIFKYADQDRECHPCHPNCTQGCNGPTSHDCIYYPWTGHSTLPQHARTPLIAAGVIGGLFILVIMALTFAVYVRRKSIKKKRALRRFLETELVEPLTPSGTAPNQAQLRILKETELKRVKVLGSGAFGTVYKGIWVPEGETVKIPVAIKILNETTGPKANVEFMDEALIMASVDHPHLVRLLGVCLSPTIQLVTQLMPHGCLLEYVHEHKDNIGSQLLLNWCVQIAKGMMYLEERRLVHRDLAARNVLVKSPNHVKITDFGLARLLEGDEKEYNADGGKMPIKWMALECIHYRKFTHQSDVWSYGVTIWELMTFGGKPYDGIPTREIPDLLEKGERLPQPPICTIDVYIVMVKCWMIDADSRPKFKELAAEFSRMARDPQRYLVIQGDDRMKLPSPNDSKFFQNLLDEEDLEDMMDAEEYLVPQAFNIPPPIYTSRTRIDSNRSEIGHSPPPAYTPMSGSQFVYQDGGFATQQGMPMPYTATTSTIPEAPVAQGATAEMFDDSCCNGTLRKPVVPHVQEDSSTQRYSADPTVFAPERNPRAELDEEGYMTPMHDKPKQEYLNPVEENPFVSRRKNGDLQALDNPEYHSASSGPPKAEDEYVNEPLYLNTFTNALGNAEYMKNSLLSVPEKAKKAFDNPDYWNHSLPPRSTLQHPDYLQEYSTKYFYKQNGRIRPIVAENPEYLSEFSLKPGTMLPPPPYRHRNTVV
T2 sequence (P06494 23-1257 partner): as the sequence (P06494 23-1257 partner) above

On to “huNRG1(S177-F229)(NRGE1C) (E47S_D48T_F49R_M50V) huIgG1z SELF2 Fc: Fc fusion of NRG1 variant SEQ ID NO:123”, for which the EC50 with ErbB3 came to 10000 nM. In addition, in the test with ErbB4, the EC50 amounted to 0.19 nM, the “Selectivity SC/CM” value is reported as over 10000 and the “CM % Agonism AVG” value is recorded as 76%.

As to “huNRG1(S177-F229)(NRGE1D) (E47K_D48L_F49D_M50I) huIgG1z SELF2 Fc: Fc fusion of NRG1 variant SEQ ID NO:127”, the EC50 in the test with ErbB3 stood at 9.33 nM. In the test with ErbB4, the EC50 was found to be 0.15 nM, the “Selectivity SC/CM” value was 62.2 and the “CM % Agonism AVG” value is 88.5%.

Regarding “huNRG1(S177-F229)(NRGE1D) (E47S_D48S_F49E_M50L) huIgG1z SELF2 Fc: Fc fusion of NRG1 variant SEQ ID NO:128”, in the test with ErbB3, the EC50 is 10000 nM. Besides, in the test with ErbB4, the EC50 was found to be 0.37 nM, the “Selectivity SC/CM” value is over 10000 and the “CM % Agonism AVG” value came out at 86.3%.

Turning to “huNRG1(S177-F229)(NRGE1D) (E47T_D48S_F49L_M50L) hnIgG1z SELF2 Fc: Fc fusion of NRG1 variant SEQ ID NO:129”, in the test with ErbB3, the EC50 is 10000 nM. Also, in the test with ErbB4, the EC50 stood at 0.39 nM, the “Selectivity SC/CM” value is on record as over 10000 and the “CM % Agonism AVG” value was found to be 79.5%.

Regarding “huNRG1(S177-F229)(wt)::3x(G4Q)::huFcSEFL2 (Pb): Fc fusion of wild-type NRG1 fragment S177-F229 [reference compound]”, in the test with ErbB4, the EC50 stood at 0.34 nM and the “Selectivity SC/CM” value is recorded as 0.3.

As to “huNRG1(S177-Q237)(wt)::3x(G4Q)::huFcSEFL2 (Pb): Fc fusion of wild-type NRG1 fragment S177-Q237 [reference compound]”, in the test with ErbB3, the EC50 is 0.07 nM. In the test with ErbB4, the EC50 was found to be 0.21 nM and the “Selectivity SC/CM” value is 0.3.

Take “huNRG1(S177-Q237)(wt)::GG::huFcSEFL2 (Pb): Fc fusion of wild-type NRG1 fragment S177-Q237 [reference compound]”: the EC50 with ErbB3 was 0.112 nM and 0.15 nM. For the same substance, in the test with ErbB4, the “Selectivity SC/CM” value is 0.4 and 0.3; the “CM % Agonism AVG” value was “Full”.

For the substance “huNRG1(S177-S228)(wt)((G4E)2:G4)::huFcSEFL2 (Pb): Fc fusion of wild-type NRG1 fragment S177-S228 [reference compound]”, the EC50 with ErbB3 came to 0.0222 nM. Moreover, in the test with ErbB4, the EC50 was 0.084 nM, the “Selectivity SC/CM” value came out at 0.2643 and the “CM % Agonism AVG” value is on record as 92.6%.
